In the supplement of paper PMC5998384:

Experiments:
HeLa Kyoto [1] = test: solubility in G1/S (NP-40 vs SDS abundance) (log2 ratio); higher = more soluble; conditions: cell cycle stage: G1/S
HeLa Kyoto [2] = test: solubility change mitosis vs G1/S (difference of NP-40 vs SDS log2 ratios) (log2 ratio difference); higher = more soluble in mitosis
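For solubility change mitosis vs G1/S (difference of NP-40 vs SDS log2 ratios) in this document: synchronized HeLa Kyoto cells (double thymidine block for G1/S, nocodazole release for mitosis), protein amounts in NP-40 versus SDS lysates quantified by mass spectrometry, three biological replicates.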
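For solubility in G1/S (NP-40 vs SDS abundance) in this document: HeLa Kyoto cells arrested at G1/S by double thymidine block, proteins quantified by TMT10plex mass spectrometry in mild NP-40 versus SDS extracts, three biological replicates.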

STK25, sequence (chain, as listed by the source): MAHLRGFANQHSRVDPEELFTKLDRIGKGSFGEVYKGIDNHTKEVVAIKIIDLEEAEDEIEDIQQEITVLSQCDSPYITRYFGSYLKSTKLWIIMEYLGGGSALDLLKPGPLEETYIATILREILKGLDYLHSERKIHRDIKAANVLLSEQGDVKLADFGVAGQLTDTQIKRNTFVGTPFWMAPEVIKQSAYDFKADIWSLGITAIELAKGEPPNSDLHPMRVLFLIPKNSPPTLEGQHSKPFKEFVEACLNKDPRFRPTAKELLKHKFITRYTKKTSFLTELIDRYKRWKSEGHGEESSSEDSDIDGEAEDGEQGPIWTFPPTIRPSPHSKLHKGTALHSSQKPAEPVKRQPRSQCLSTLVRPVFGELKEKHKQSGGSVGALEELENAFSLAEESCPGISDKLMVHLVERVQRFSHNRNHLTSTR
INPP5B, sequence (chain, as listed by the source): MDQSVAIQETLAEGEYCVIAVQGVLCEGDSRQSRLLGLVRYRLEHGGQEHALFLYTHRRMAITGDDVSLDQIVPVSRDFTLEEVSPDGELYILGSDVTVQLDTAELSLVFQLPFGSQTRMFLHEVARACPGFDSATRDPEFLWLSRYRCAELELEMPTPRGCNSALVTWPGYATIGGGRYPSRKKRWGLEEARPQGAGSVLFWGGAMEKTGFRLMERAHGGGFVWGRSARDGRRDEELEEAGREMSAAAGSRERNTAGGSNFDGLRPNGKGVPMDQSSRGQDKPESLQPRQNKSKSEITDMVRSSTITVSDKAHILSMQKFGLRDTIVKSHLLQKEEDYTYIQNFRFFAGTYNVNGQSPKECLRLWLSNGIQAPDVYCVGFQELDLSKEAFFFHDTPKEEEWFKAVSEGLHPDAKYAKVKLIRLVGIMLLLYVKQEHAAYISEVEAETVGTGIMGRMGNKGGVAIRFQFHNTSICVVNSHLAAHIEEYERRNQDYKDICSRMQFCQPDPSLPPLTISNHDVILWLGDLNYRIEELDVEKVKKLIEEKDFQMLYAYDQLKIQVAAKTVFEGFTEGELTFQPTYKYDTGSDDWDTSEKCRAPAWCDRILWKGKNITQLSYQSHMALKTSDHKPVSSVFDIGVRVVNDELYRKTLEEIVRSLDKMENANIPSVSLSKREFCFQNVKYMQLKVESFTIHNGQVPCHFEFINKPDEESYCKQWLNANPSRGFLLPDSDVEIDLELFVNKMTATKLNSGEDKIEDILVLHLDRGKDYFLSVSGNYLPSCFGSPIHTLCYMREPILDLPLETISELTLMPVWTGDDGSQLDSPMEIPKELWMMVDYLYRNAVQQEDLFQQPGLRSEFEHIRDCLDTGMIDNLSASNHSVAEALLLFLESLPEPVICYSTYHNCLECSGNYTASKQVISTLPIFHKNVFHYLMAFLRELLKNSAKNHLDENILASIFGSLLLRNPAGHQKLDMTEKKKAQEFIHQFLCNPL

| Substance | solubility in G1/S (log2) (HeLa Kyoto [1]) | solubility change mitosis (log2) (HeLa Kyoto [2]) |
| --- | --- | --- |
| MWTADEIAQLCYEHYGIRLPKKGKPEPNHEWTLLAAVVKIQSPADKACDTPDKPVQVTKEVVSMGTGTKCIGQSKMRKNGDILNDSHAEVIARRSFQRYLLHQLQLAATLKEDSIFVPGTQKGVWKLRRDLIFVFFSSHTPCGDASIIPMLEFEDQPCCPVFRNWAHNSSVEASSNLEAPGNERKCEDPDSPVTKKMRLEPGTAAREVTNGAAHHQSFGKQKSGPISPGIHSCDLTVEGLATVTRIAPGSAKVIDVYRTGAKCVPGEAGDSGKPGAAFHQVGLLRVKPGRGDRTRSMSCSDKMARWNVLGCQGALLMHLLEEPIYLSAVVIGKCPYSQEAMQRALIGRCQNVSALPKGFGVQELKILQSDLLFEQSRSAVQAKRADSPGRLVPCGAAISWSAVPEQPLDVTANGFPQGTTKKTIGSLQARSQISKVELFRSFQKLLSRIARDKWPHSLRVQKLDTYQEYKEAASSYQEAWSTLRKQVFGSWIRNPPDYHQFK [ADAT1] | 0.316 | -0.0783 |
| STK25 | 0.291 | -0.12 |
| MTFQFNFTIEDHLENELTPIRDGALTLDSSKELSVSESQKGEERDRKCSAEQFDLPQDHLWEHKSMENAAPSQDTDSPLSAASSSRNLEPHGKQPSLRAAKEHAMPKDLKKMLENKVIETLPGFQHVKLSVVKTILLKENFPGENIVSKSFSSHSDLITGVYEGGLKIWECTFDLLAYFTKAKVKFAGKKVLDLGCGSGLLGITAFKGGSKEIHFQDYNSMVIDEVTLPNVVANSTLEDEENDVNEPDVKRCRKPKVTQLYKCRFFSGEWSEFCKLVLSSEKLFVKYDLILTSETIYNPDYYSNLHQTFLRLLSKNGRVLLASKAHYFGVGGGVHLFQKFVEERDVFKTRILKIIDEGLKRFIIEITFKFPG [METTL18] | -0.31 | 0.0132 |
| MEEKPSGPIPDMLATAEPSSSETDKEVLSPAVPAAAPSSSMSEEPGPEQAATPPVWERGGAGGMQQGSSPAPDSCQPGPGPSPGLTSIVSGTSEDLRPPRRRPPPGKQIPCSSPGCCLSFPSVRDLAQHLRTHCPPTQSLEGKLFRCSALSCTETFPSMQELVAHSKLHYKPNRYFKCENCLLRFRTHRSLFKHLHVCAEHAQSPAPPPPPALDREPPAPERPPEVDPASAPGLPFPLLEPFTTPAPAPTGPFLPYLNPAPFGLSPPRLRPFLAAAPGPPASSAAVWKKSQGAGSSPRRPQGGSDAPSGACR [ZNF414] | -0.217 | -0.445 |
| MWRMRGGATRRGSCCGGDGAADGRGPGRSGRARGGGSPSGGGGGVGWRGRADGARQQLEERFADLAASHLEAIRARDEWDRQNARLRQENARLRLENRRLKRENRSLFRQALRLPGEGGNGTPAEARRVPEEASTNRRARDSGREDEPGSPRALRARLEKLEAMYRRALLQLHLEQRGPRPSGDKEEQPLQEPDSGLRSRDSEPSGPWL [TUSC1] | 0.541 | 0.105 |
| MSVDPMTYEAQFFGFTPQTCMLRIYIAFQDYLFEVMQAVEQVILKKLDGIPDCDISPVQIRKCTEKFLCFMKGHFDNLFSKMEQLFLQLILRIPSNILLPEDKCKETPYSEEDFQHLQKEIEQLQEKYKTELCTKQALLAELEEQKIVQAKLKQTLTFFDELHNVGRDHGTSDFRESLVSLVQNSRKLQNIRDNVEKESKRLKIS [MIS12] | -0.177 | 0.259 |
| GFER | 0.733 | 0.192 |
| MVARRRKCAARDPEDRIPSPLGYAAIPIKFSEKQQASHYLYVRAHGVRQGTKSTWPQKRTLFVLNVPPYCTEESLSRLLSTCGLVQSVELQEKPDLAESPKESRSKFFHPKPVPGFQVAYVVFQKPSGVSAALALKGPLLVSTESHPVKSGIHKWISDYADSVPDPEALRVEVDTFMEAYDQKIAEEEAKAKEEEGVPDEEGWVKVTRRGRRPVLPRTEAASLRVLERERRKRSRKELLNFYAWQHRESKMEHLAQLRKKFEEDKQRIELLRAQRKFRPY [RRP7A] | -1.58 | 1.02 |
| MPGRAEAGEAEEEAGAGSGSEAEEDALWERIEGVRHRLARALNPAKLTPYLRQCRVIDEQDEEEVLSTYRFPCRVNRTGRLMDILRCRGKRGYEAFLEALEFYYPEHFTLLTGQEPAQRCSMILDEEGPEGLTQFLMTEVRRLREARKSQLQREQQLQARGRVLEEERAGLEQRLRDQQQAQERCQRLREDWEAGSLELLRLKDENYMIAMRLAQLSEEKNSAVLRSRDLQLAVDQLKLKVSRLEEECALLRRARGPPPGAEEKEKEKEKEKEPDNVDLVSELRAENQRLTASLRELQEGLQQEASRPGAPGSERILLDILEHDWREAQDSRQELCQKLHAVQGELQWAEELRDQYLQEMEDLRLKHRTLQKDCDLYKHRMATVLAQLEEIEKERDQAIQSRDRIQLQYSQSLIEKDQYRKQVRGLEAERDELLTTLTSLEGTKALLEVQLQRAQGGTCLKACASSHSLCSNLSSTWSLSEFPSPLGGPEATGEAAVMGGPEPHNSEEATDSEKEINRLSILPFPPSAGSILRRQREEDPAPPKRSFSSMSDITGSVTLKPWSPGLSSSSSSDSVWPLGKPEGLLARGCGLDFLNRSLAIRVSGRSPPGGPEPQDKGPDGLSFYGDRWSGAVVRRVLSGPGSARMEPREQRVEAAGLEGACLEAEAQQRTLLWNQGSTLPSLMDSKACQSFHEALEAWAKGPGAEPFYIRANLTLPERADPHALCVKAQEILRLVDSAYKRRQEWFCTRVDPLTLRDLDRGTVPNYQRAQQLLEVQEKCLPSSRHRGPRSNLKKRALDQLRLVRPKPVGAPAGDSPDQLLLEPCAEPERSLRPYSLVRPLLVSALRPVVLLPECLAPRLIRNLLDLPSSRLDFQVCPAESLSGEELCPSSAPGAPKAQPATPGLGSRIRAIQESVGKKHCLLELGARGVRELVQNEIYPIVIHVEVTEKNVREVRGLLGRPGWRDSELLRQCRGSEQVLWGLPCSWVQVPAHEWGHAEELAKVVRGRILQEQARLVWVECGSSRGCPSSSEA [CARD10] | -0.0585 | 0.0575 |
| MASGDFCSPGEGMEILQQVCSKQLPPCNLSKEDLLQNPYFSKLLLNLSQHVDESGLSLTLAKEQAQAWKEVRLHKTTWLRSEILHRVIQELLVDYYVKIQDTNVTSEDKKFHETLEQRLLVTELMRLLGPSQEREIPPLLGLEKADLLELMPLSEDFVWMRARLQQEVEEQLKKKCFTLLCYYDPNSDADSETVKAAKVWKLAEVLVGEQQQCQDAKSQQKEQMLLLEKKSAAYSQVLLRCLTLLQRLLQEHRLKTQSELDRINAQYLEVKCGAMILKLRMEELKILSDTYTVEKVEVHRLIRDRLEGAIHLQEQDMENSRQVLNSYEVLGEEFDRLVKEYTVLKQATENKRWALQEFSKVYR [HAUS4] | 0.377 | -0.0485 |
| KDM5A | -0.206 | 0.00727 |
| MSDRKAVIKNADMSEDMQQDAVDCATQAMEKYNIEKDIAAYIKKEFDKKYNPTWHCIVGRNFGSYVTHETKHFIYFYLGQVAILLFKSG [DYNLL2] | -0.415 | 0.249 |
| MMADEEEEVKPILQKLQELVDQLYSFRDCYFETHSVEDAGRKQQDVQKEMEKTLQQMEEVVGSVQGKAQVLMLTGKALNVTPDYSPKAEELLSKAVKLEPELVEAWNQLGEVYWKKGDVAAAHTCFSGALTHCRNKVSLQNLSMVLRQLRTDTEDEHSHHVMDSVRQAKLAVQMDVHDGRSWYILGNSYLSLYFSTGQNPKISQQALSAYAQAEKVDRKASSNPDLHLNRATLHKYEESYGEALEGFSRAAALDPAWPEPRQREQQLLEFLDRLTSLLESKGKVKTKKLQSMLGSLRPAHLGPCSDGHYQSASGQKVTLELKPLSTLQPGVNSGAVILGKVVFSLTTEEKVPFTFGLVDSDGPCYAVMVYNIVQSWGVLIGDSVAIPEPNLRLHRIQHKGKDYSFSSVRVETPLLLVVNGKPQGSSSQAVATVASRPQCE [TTC5] | 0.132 | 0.145 |
| INPP5B | -0.143 | -0.0113 |
| MQIIRHSEQTLKTALISKNPVLVSQYEKLNAGEQRLMNEAFQPASDLFGPITLHSPSDWITSHPEAPQDFEQFFSDPYRKTPSPNKRSIYIQSIGSLGNTRIISEEYIKWLTGYCKAYFYGLRVKLLEPVPVSVTRCSFRVNENTHNLQIHAGDILKFLKKKKPEDAFCVVGITMIDLYPRDSWNFVFGQASLTDGVGIFSFARYGSDFYSMHYKGKVKKLKKTSSSDYSIFDNYYIPEITSVLLLRSCKTLTHEIGHIFGLRHCQWLACLMQGSNHLEEADRRPLNLCPICLHKLQCAVGFSIVERYKALVRWIDDESSDTPGATPEHSHEDNGNLPKPVEAFKEWKEWIIKCLAVLQK [AMZ2] | 0.00677 | -0.0784 |
| MAEHAPRRCCLGWDFSTQQVKVVAVDAELNVFYEESVHFDRDLPEFGTQGGVHVHKDGLTVTSPVLMWVQALDIILEKMKASGFDFSQVLALSGAGQQHGSIYWKAGAQQALTSLSPDLRLHQQLQDCFSISDCPVWMDSSTTAQCRQLEAAVGGAQALSCLTGSRAYERFTGNQIAKIYQQNPEAYSHTERISLVSSFAASLFLGSYSPIDYSDGSGMNLLQIQDKVWSQACLGACAPHLEEKLSPPVPSCSVVGAISSYYVQRYGFPPGCKVVAFTGDNPASLAGMRLEEGDIAVSLGTSDTLFLWLQEPMPALEGHIFCNPVDSQHYMALLCFKNGSLMREKIRNESVSRSWSDFSKALQSTEMGNGGNLGFYFDVMEITPEIIGRHRFNTENHKVAAFPGDVEVRALIEGQFMAKRIHAEGLGYRVMSKTKILATGGASHNREILQVLADVFDAPVYVIDTANSACVGSAYRAFHGLAGGTDVPFSEVVKLAPNPRLAATPSPGASQVYEALLPQYAKLEQRILSQTRGPPE [XYLB] | -0.242 | 0.111 |
| MALEQALQAARQGELDVLRSLHAAGLLGPSLRDPLDALPVHHAARAGKLHCLRFLVEEAALPAAARARNGATPAHDASATGHLACLQWLLSQGGCRVQDKDNSGATVLHLAARFGHPEVVNWLLHHGGGDPTAATDMGALPIHYAAAKGDFPSLRLLVEHYPEGVNAQTKNGATPLYLACQEGHLEVTQYLVQECGADPHARAHDGMTPLHAAAQMGHSPVIVWLVSCTDVSLSEQDKDGATAMHFAASRGHTKVLSWLLLHGGEISADLWGGTPLHDAAENGELECCQILVVNGAELDVRDRDGYTAADLSDFNGHSHCTRYLRTVENLSVEHRVLSRDPSAELEAKQPDSGMSSPNTTVSVQPLNFDLSSPTSTLSNYDSCSSSHSSIKGQHPPCGLSSARAADIQSYMDMLNPELGLPRGTIGKPTPPPPPPSFPPPPPPPGTQLPPPPPGYPAPKPPVGPQAADIYMQTKNKLRHVETEALKKELSSCDGHDGLRRQDSSRKPRAFSKQPSTGDYYRQLGRCPGETLAARPGMAHSEEVRARQPARAGCPRLGPAARGSLEGPSAPPQAALLPGNHVPNGCAADPKASRELPPPPPPPPPPLPEAASSPPPAPPLPLESAGPGCGQRRSSSSTGSTKSFNMMSPTGDNSELLAEIKAGKSLKPTPQSKGLTTVFSGIGQPAFQPDSPLPSVSPALSPVRSPTPPAAGFQPLLNGSLVPVPPTTPAPGVQLDVEALIPTHDEQGRPIPEWKRQVMVRKMQLKMQEEEEQRRKEEEEEARLASMPAWRRDLLRKKLEEEREQKRKEEERQKQEELRREKEQSEKLRTLGYDESKLAPWQRQVILKKGDIAKY [ESPN] | -0.041 | -0.0492 |
